Experimental data from patent US20210253718A1, “FRIZZLED5 PROTEIN-BINDING AGENTS” (Modmab Therapeutics Corporation, priority 2016, published 2021).
Residue numbers refer to the chain shown, from its start.

T1: FZD10 CRD (Homo sapiens, UniProt Q9ULW2)
T1 construct: 30-156; GPI anchor signal (C); expressed in transfected cells; host or cells: CHO cells, lentiviral pLenti-puro
T1 sequence (Q9ULW2 30-156): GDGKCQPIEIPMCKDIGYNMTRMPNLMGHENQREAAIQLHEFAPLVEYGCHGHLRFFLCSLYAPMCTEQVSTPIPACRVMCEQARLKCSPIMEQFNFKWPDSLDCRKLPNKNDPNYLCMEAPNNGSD

T2: FZD9 CRD (Homo sapiens, UniProt O00144)
T2 construct: G35-A161; GPI anchor signal (C); expressed in transfected cells; host or cells: CHO cells, lentiviral pLenti-puro
T2 sequence (O00144 35-161): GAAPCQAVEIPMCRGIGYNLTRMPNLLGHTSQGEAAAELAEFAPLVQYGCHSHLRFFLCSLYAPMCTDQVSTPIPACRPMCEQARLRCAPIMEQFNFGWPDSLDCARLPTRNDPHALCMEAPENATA

T3: FZD8 CRD (Homo sapiens, UniProt Q9H461)
T3 construct: K31-D155; GPI anchor signal (C); expressed in transfected cells; host or cells: CHO cells, lentiviral pLenti-puro
T3 sequence (Q9H461 31-155): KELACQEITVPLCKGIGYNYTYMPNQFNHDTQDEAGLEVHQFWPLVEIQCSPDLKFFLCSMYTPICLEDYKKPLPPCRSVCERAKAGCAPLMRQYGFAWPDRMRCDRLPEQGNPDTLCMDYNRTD

B1: Fab-2922: anti-FZD5 Fab with antibody variable region Fv-2922; CDR SEQ ID NOs: 35, 36, 61, 99, 137, 171 (antibody, V domains shown)
VH: EVQLVESGGGLVQPGGSLRLSCAASGFNIYSSYMHWVRQAPGKGLEWVASISPYSGYTSYADSVKGRFTISADTSKNTAYLQMNSLRAEDTAVYYCARTVRGSKKPYFSGWAMDYWGQGTLVTVSS
VL: DIQMTQSPSSLSASVGDRVTITCRASQSVSSAVAWYQQKPGKAPKLLIYSASSLYSGVPSRFSGSRSGTDFTLTISSLQPEDFATYYCQQSFVYPYLITFGQGTKVEIK
B2: Fab-2933: anti-FZD5 Fab with antibody variable region Fv-2933; CDR SEQ ID NOs: 35, 36, 72, 109, 148, 177 (antibody, V domains shown)
VH: B1 VH with I29L, S52Y, P53S, Y54S, S55Y
VL: DIQMTQSPSSLSASVGDRVTITCRASQSVSSAVAWYQQKPGKAPKLLIYSASSLYSGVPSRFSGSRSGTDFTLTISSLQPEDFATYYCQQFWWYASWLFTFGQGTKVEIK
B3: Fab-2927: anti-FZD5 Fab with antibody variable region Fv-2927; CDR SEQ ID NOs: 35, 36, 66, 104, 142, 174 (antibody, V domains shown)
VH: EVQLVESGGGLVQPGGSLRLSCAASGFNIYYSSMHWVRQAPGKGLEWVASIYPSYGYTSYADSVKGRFTISADTSKNTAYLQMNSLRAEDTAVYYCARYGYYGFDYWGQGTLVTVSS
VL: B1 VL with S91W, F92G, V93S, Y94H, P95G
B4: Fab-2921: anti-FZD5 Fab with antibody variable region Fv-2921; CDR SEQ ID NOs: 35, 36, 60, 98, 136, 162 (antibody, V domains shown)
VH: EVQLVESGGGLVQPGGSLRLSCAASGFNISYYYIHWVRQAPGKGLEWVASIYPSSGSTSYADSVKGRFTISADTSKNTAYLQMNSLRAEDTAVYYCARGAMDYWGQGTLVTVSS
VL: DIQMTQSPSSLSASVGDRVTITCRASQSVSSAVAWYQQKPGKAPKLLIYSASSLYSGVPSRFSGSRSGTDFTLTISSLQPEDFATYYCQQWYAGSLITFGQGTKVEIK
B5: Fab-2924: anti-FZD5 Fab with antibody variable region Fv-2924; CDR SEQ ID NOs: 35, 36, 63, 101, 139, 153 (antibody, V domains shown)
VH: B4 VH with Y32S, P53S, S54Y, S55Y, G56S, M101L
VL: B1 VL with S91W, F92Y, V93S, Y94G, P95H, Y96S
B6: Fab-2930: anti-FZD5 Fab with antibody variable region Fv-2930; CDR SEQ ID NOs: 35, 36, 69, 107, 145, 153 (antibody, V domains shown)
VH: B4 VH with I29L, S54Y, M101L
VL: B4 VL with A93G, G94P, S95Y
B7: Fab-2934: anti-FZD5 Fab with antibody variable region Fv-2934; CDR SEQ ID NOs: 35, 36, 73, 110, 149, 155 (antibody, V domains shown)
VH: B4 VH with Y32S, I34M, P53S, M101I
VL: B4 VL with A93H, G94Y, S95G
B8: Fab-2932: anti-FZD5 Fab with antibody variable region Fv-2932; CDR SEQ ID NOs: 35, 36, 71, 108, 147, 153 (antibody, V domains shown)
VH: B4 VH with Y32S, I34M, P53S, S55Y, G56S, M101L
VL: B1 VL with S91W, F92Y, V93G, Y94S, P95F, Y96A

Key:
FZD2 CRD = biological target: T4, FZD2 CRD (Homo sapiens, UniProt Q14332); test: Immunofluorescence of anti-FZD5 Fab binding to CHO cells overexpressing Frizzled CRD; set-up: key: −: no binding; +: very weak binder; ++: weak binder; +++: good binder; ++++: very good binder
T4 construct: D35-P161; GPI anchor signal (C); expressed in transfected cells; host or cells: CHO cells, lentiviral pLenti-puro
How it was run: (§1)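 First, ten CHO cell lines were made, each lentivirally expressing a different human Frizzled CRD tagged with myc and tethered by GPI. Next, anti-FZD5 Fabs were added to each line. Finally, binding was assessed by immunofluorescence and flow cytometry.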

FZD7 CRD = biological target: T5, FZD7 CRD (Homo sapiens, UniProt O75084); test: as above; set-up: key: −: no binding; +: very weak binder; ++: weak binder; +++: good binder; ++++: very good binder
T5 construct: D45-S169; GPI anchor signal (C); expressed in transfected cells; host or cells: CHO cells, lentiviral pLenti-puro
How it was run: as §1

FZD10 CRD = biological target: T1, FZD10 CRD; test: as above; set-up: key: −: no binding; +: very weak binder; ++: weak binder; +++: good binder; ++++: very good binder
How it was run: as §1

FZD9 CRD = biological target: T2, FZD9 CRD; test: as above; set-up: key: −: no binding; +: very weak binder; ++: weak binder; +++: good binder; ++++: very good binder
How it was run: as §1

FZD8 CRD = biological target: T3, FZD8 CRD; test: as above; set-up: key: −: no binding; +: very weak binder; ++: weak binder; +++: good binder; ++++: very good binder
How it was run: as §1

[1] = system: CHO cells not expressing Frizzled CRD; test: Flow cytometry of anti-FZD5 Fab binding to CHO cells not expressing Frizzled CRD (background)
From the text: The binding of anti-FZD5 Fabs to cell surface-expressed Frizzled protein was further determined for each member of the Frizzled family via flow cytometry and immunofluorescence analysis of a panel of 10 CHO cell lines, each ectopically over-expressing the extracellular cysteine-rich domain (CRD) of a different Frizzled protein family member.

PATU8988S cells = test: Effect of anti-FZD5 Fabs on proliferation of pancreatic cancer cell lines (percent growth inhibition); type: cell-based, human; settings: Fab 2 μg/ml

| Molecule | Immunofluorescence binding, Frizzled CRD overexpressed on CHO cells: FZD2 (FZD2 CRD) | Immunofluorescence binding, Frizzled CRD overexpressed on CHO cells: FZD7 (FZD7 CRD) | Immunofluorescence binding, Frizzled CRD overexpressed on CHO cells: FZD10 (FZD10 CRD) | Immunofluorescence binding, Frizzled CRD overexpressed on CHO cells: FZD9 (FZD9 CRD) | Immunofluorescence binding, Frizzled CRD overexpressed on CHO cells: FZD8 (FZD8 CRD) | Median fluorescence, Frizzled CRD overexpressed on CHO cells: None [1] | percent growth inhibition, PATU8988s 2 μg/ml (PATU8988S cells) [%] |
| --- | --- | --- | --- | --- | --- | --- | --- |
| B1 | − | − | − | − | + | 3.89 | 9.16 |
| B2 | − | + | − | − | + | 3.92 | 6.02 |
| B3 | +++ | ++++ | − | − | + | 3.79 | −15.15 |
| B4 | − | − | − | − | + | 3.22 | −1.56 |
| B5 | − | − | − | − | + | 4.1 | −16.11 |
| B6 | − | + | − | − | + | 4.66 | −0.39 |
| B7 | − | − | − | − | + | 3.13 | −9.14 |
| B8 | − | ++ | − | − | + | 3.59 | −14.70 |
